Experimental findings from patent US6884600B1, “Protein phosphatase-1 catalytic subunit interactions” (Medical Research Council London, priority 1996, dated 2005) are described below.

For one series, the system named is M21 subunit. The experiment in a line: Far Western blotting: interaction with the M21 subunit. In kind it is binding, chicken. Conditions: probe 0.2 μg/ml. The procedure: A) PP1M 5 μg (track 1), 10 μg bacterial extract containing M110-(R714-I1004) (track 2), MBP-M110-(R714-I004) 1 μg (track 3), MBP-M110-(R714-L934) 1 μg (track 4), MBP-M110-(K933-I1004) 1 μg (track 5), MBP 1 μg (track 6), M110-(M1-E309) 2 μg (lane 7) and M110-(M1-S477) 2 μg (track 8) were run on a 12% SDS/polyacrylamide gel and stained with Coomassie Blue. B) same as A) except that 10-fold less protein was electrophoresed and after transfer to nitrocellulose the proteins were probed with digoxigenin-labelled M21 subunit (0.2 μg/ml). C) same as B) except that, after electrophoresis, the proteins were transferred to nitrocellulose and probed with digoxigenin-labelled M21-(M1-L146) (0.2 μg/ml).
A) GST-M21 5 μg (track 1), M21 5 μg (track 2), M21-(M1-L146) 5 μg (track 3), M21-(M1-E110) 20 μg (track 4) and M21-(E110-K186) 5 μg (track 5) were run on 16.5% polyacrylamide gels and stained with Coomassie Blue. The marker proteins ovalbumin (43 kDa) and carbonic anhydrase (29 kDa) are indicated. B) GST-M21 0.5 μg (track 1), M21 0.5 μg (track 2), M21-M1-L146) 0.5 μg (track 3), M21-(M1-E110) 5 μg (track 4) and M21-(E110-K186) 5 μg (track 5) were electrophoresed as in A) and after transfer to nitrocellulose the blots were probed with digoxigenin-labelled MBP-M110-(K933-I1004) (0.2 μg/Ml). C) same as B) except that, after electrophoresis, the proteins were transferred to nitrocellulose and probed with digoxigenin-labelled M21 subunit (0.2 μg/ml).
PP1M (0.5 μAg) was electrophoresed on a 12% SDS/polyacrylamide gel, transferred to nitrocellulose and probed with digoxigenin-labelled M21 subunit (0.2 μg/ml) (track 1) or digoxigenin-labelled M21-(M1-L146) (0.2 μg/ml) (track 2). The positions of the M110 subunit, the M21 subunit and PP1c are marked.
Proteins were labelled with digoxigenin and Far Western analyses carried out as described, except that the digoxigenin-labelled probe was used at a concentration of 0.2 μg/ml instead of 2 μg/ml. SDS/polyacrylamide gel electrophoresis was carried out on 7.5-15% gels according to Laemmli and on 16.5% gels according to Schagger and von Jagow. Protein was estimated according to Bradford.

The next series addresses T1, myosin (Gallus gallus, UniProt P10587).
T1 construct: from tissue; host or cells: chicken gizzard
The experiment in a line: Myosin binding assay (pelleting with myosin). To be noted: myosin 1 μM, 15 min 0° C. More on the design: species or system chicken. On the procedure: The PP1 catalytic subunit (PP1c), PP1M, or PP1M lacking the M21 subunit, PP1M(ΔM21), each at 30 nM, were incubated for 15 min at 0° C. with 1 μM myosin and centrifuged (see Methods of Example 3). […] The results shown are the average (±S.E.M.) for three separate experiments each assayed in duplicate.
(A); PP1M, M110-(M1-S477) and GST-M110-(M377-K976), each at 30 nM were incubated for 15 min at 0° C. with 1 μM myosin and centrifuged. The supernatants (S), resuspended pellets (P) and the suspension before centrifugation (T, total) were electrophoresed on 12% SDS/polyacrylamide gels, transferred to nitrocellulose and immunoblotted with antibodies raised against the PP1M holoenzyme. No protein was pelleted in the absence of myosin (not shown). The positions of the marker proteins myosin heavy chain (200 kDa), glycogen phosphorylase (97 kDa), bovine serum albumin (66 kDa), ovalbumin (43 kDa), carbonic anhydrase (29 kDa) and soybean trypsin inhibitor (20 kDa) are indicated. (B) The experiments were carried out as in (A), except that the M110 fragments and M21 subunit were used at 100 nM, the 8.5 kDa M110-(K933-I1004) fragment was electrophoresed on a 16.5% polyacrylamide gel and immunoblotting was carried out with affinity purified antibodies (see Methods). A small amount of M110-(R714-I1004) pelleted in the absence of myosin. […] No other protein was pelleted in the absence of myosin.
(A); Myosin (1 μM) was mixed with 50 μM, 20 μM or 10 μM M21 subunit to give the molar ratios M21:myosin dimer indicated. After 15 min at 0° C., the solutions were centrifuged and the supernatants (S), resuspended pellets (P) and the suspension before centrifugation (T, total) were electrophoresed on 12% SDS/polyacrylamide gels and stained with Coomassie blue. The positions of the myosin heavy chain (MHC) and the M21 subunit are indicated. The myosin light chains migrate faster than the M21 subunit and are not visible at these loadings.
Myosin binding assays. Myosin (0.5 mg/ml, 1 μM in terms of myosin heavy chains) in 10 mM Hepes pH 7.5, 50 mM KCl, 5 mM MgCl2, 0.1% (by vol) 2-mercaptoethanol, was mixed with PP1M, M21 subunit, or fragments of the M110 and M21 subunits, at the concentrations indicated in figure legends. After incubation for 15 min at 0° C., the solutions were centrifuged for 2 min at 13,000×g, the supernatants removed, and the pellets washed twice in 10 mM Hepes pH 7.5, 50 mM KCl, 5 mM MgCl2, 0.1% (by vol) 2-mercaptoethanol before resuspension in 50 mM Tris-HCl pH 7.5, 0.1 mM EGTA, 0.03% (by mass) Brij 35, 0.6 M NaCl, 0.1% (by vol) 2-mercaptoethanol. Aliquots of the supernatant, the resuspended pellet and the suspension before centrifugation were either assayed for myosin P-light chain phosphatase activity or denatured in SDS and analysed by SDS/polyacrylamide gel electrophoresis.

Series [1] concerns the target T2, PP1c (Oryctolagus cuniculus, UniProt P62143).
T2 construct: from tissue; host or cells: rabbit skeletal muscle (PP1G dissociated with LiBr)
Description: Phosphorylase phosphatase activity of PP1c. It counts as biochemical, rabbit. On the procedure:
(§1) A,B; Effects of M110-(M1-E309) (closed circles), M110-(M1-F38) (open circles) and M110-(D39-E309) (open triangles) on the MLC20 phosphatase […] and phosphorylase phosphatase (B) activities of PP1c were measured after incubating PP1c for 15 minutes at 30° C. with each fragment. The results are presented as a percentage of those obtained in experiments where the M110 fragments were omitted.
(§2) C,D; The effect of M110-(M1-A150) (open circles) and M110-(L24-Y496) (closed circles) on the MLC20 phosphatase (C) and phosphorylase phosphatase (D) activities of PP1c were measured as in A,B.
(B) The phosphorylase phosphatase activity of PP1c was assayed as in A in the presence or absence of 1 μM GM-(G63-T93) and 1.0 nM M110-(M1-E309). The results are presented (SEM for three experiments) as a percentage of the PP1c activity measured in the absence of GM-(63-T93), M110-(M1-F38) or M110-(M1-E309).
(§3) The myosin-associated form of PP1 (PP1M) was from chicken gizzard and the glycogen-associated form of PP1 (PP1G) from rabbit skeletal muscle. The β isoform of PP1c was released from PP1G by incubation for 2 hours in 2M LiBr, then purified by gel-filtration on a 30×1 cm column of Superose 12 (Pharmacia, Milton Keynes, U.K.) in the presence of 0.5M LiBr. Glycogen protein particles from rat liver were used as the source of hepatic PP1G Digoxygenin-labelled PP1c (γ1-isoform, hereafter termed PP1) was prepared as in [9]. GL was expressed in E. coli as a glutathione-S-transferase (GST) fusion protein [7], termed GST-GL. The catalytic subunit of PP2A from bovine heart (PP2AC) was provided by Dr R. MacKintosh in this Unit. The phosphorylatable myosin light chain (MLC20) and heavy meromyosin from chicken gizzard were a gift from Dr M. Ikebe (Case Western Reserve University, Cleveland, USA). Thrombin and benzamidine-Agarose were purchased from Sigma (Poole, UK).
(§4) ^32P-labelled rabbit skeletal muscle phosphorylase a (containing 1.0 mol phosphate per mol subunit) was prepared by phosphorylation with phosphorylase kinase, ^32P-labelled rabbit skeletal muscle glycogen synthase (containing 1.5 mol/mol subunit in the sites 3 region) was prepared by phosphorylation with glycogen synthase kinase-3 [24]). ^32P-labelled chicken gizzard MLC20 and ^32P-labelled chicken gizzard heavy meromyosin (containing 1.0 mol phosphate per mol subunit) were prepared by phosphorylation with smooth muscle myosin light chain kinase. The dephosphorylation of phosphorylase a (10 μM), glycogen synthase (1 μM) and MLC20 (1 μM) and heavy meromyosin (1 μM) was carried out as in [24]. One unit of activity (U) was that amount which released […] of phosphate in one minute.
(§5) PP1c was isolated from the rabbit skeletal muscle PP1-GM complex as described previously (Johnson et al, 1996). Glycogen particles isolated from rat liver (Schelling el al, 1988) served as the source of PP1-GL. The dephosphorylation of glycogen phosphorylase (10 μM) and the isolated MLC20 of smooth muscle myosin (1 μM) by PP1c was carried out as described previously (Cohen et al., 1988; Alessi et al., 1992).

Series [2] addresses T2, PP1c. The experiment in a line: MLC20 (myosin P-light chain) phosphatase activity of PP1c. In kind it is biochemical. The procedure: as §1, §2
(A) The MLC20 phosphatase activity of PP1c was assayed after incubation for 15 minutes at 30° C. in the presence or absence of 1 μM GM-(G63-T93) and either 0.1 μM M110-(M1-F38) or 0.1 nM M110-(M1-E309).
(1-38, open circles) or M110[M1-K35] (1-35, closed circles) were incubated with PP1c for 15 min at 30° C. and reactions started with the ^32P-labelled MLC20 substrate. The results are expressed as a % of the activity determined in control incubations where the M110 peptides were omitted (100%). Similar results were obtained in three separate experiments.
as §3, §4, §5
^32P-labelled myosin P-light chains containing 1.0 mol phosphate per mol subunit was prepared by phosphorylation with smooth muscle myosin light chain kinase. The dephosphorylation of myosin P-light chain (1 μM) was carried out as in [4] and one unit of activity (U) was that amount which catalysed the release of 1 μmole of phosphate in one min. When assaying PP1M in immunoprecipitates from the myofibrillar extracts, the tubes were shaken continuously and 3 nM okadaic acid was included to inhibit any PP2A present.

M21 subunit, sequence (as listed by the source): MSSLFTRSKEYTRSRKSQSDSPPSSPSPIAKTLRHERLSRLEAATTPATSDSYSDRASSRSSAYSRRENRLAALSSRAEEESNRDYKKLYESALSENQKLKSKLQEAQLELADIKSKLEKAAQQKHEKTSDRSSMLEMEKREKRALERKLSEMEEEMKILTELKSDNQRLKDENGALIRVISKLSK
T2 sequence (P62143 whole entry): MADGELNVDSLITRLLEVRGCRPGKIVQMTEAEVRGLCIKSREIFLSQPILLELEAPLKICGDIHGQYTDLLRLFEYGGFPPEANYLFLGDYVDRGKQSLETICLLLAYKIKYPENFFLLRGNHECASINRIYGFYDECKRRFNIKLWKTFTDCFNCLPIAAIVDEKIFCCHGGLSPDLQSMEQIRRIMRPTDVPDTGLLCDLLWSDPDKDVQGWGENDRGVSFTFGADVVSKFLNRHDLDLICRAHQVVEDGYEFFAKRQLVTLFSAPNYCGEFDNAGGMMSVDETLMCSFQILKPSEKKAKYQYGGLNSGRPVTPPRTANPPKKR
T1 sequence (P10587 whole entry): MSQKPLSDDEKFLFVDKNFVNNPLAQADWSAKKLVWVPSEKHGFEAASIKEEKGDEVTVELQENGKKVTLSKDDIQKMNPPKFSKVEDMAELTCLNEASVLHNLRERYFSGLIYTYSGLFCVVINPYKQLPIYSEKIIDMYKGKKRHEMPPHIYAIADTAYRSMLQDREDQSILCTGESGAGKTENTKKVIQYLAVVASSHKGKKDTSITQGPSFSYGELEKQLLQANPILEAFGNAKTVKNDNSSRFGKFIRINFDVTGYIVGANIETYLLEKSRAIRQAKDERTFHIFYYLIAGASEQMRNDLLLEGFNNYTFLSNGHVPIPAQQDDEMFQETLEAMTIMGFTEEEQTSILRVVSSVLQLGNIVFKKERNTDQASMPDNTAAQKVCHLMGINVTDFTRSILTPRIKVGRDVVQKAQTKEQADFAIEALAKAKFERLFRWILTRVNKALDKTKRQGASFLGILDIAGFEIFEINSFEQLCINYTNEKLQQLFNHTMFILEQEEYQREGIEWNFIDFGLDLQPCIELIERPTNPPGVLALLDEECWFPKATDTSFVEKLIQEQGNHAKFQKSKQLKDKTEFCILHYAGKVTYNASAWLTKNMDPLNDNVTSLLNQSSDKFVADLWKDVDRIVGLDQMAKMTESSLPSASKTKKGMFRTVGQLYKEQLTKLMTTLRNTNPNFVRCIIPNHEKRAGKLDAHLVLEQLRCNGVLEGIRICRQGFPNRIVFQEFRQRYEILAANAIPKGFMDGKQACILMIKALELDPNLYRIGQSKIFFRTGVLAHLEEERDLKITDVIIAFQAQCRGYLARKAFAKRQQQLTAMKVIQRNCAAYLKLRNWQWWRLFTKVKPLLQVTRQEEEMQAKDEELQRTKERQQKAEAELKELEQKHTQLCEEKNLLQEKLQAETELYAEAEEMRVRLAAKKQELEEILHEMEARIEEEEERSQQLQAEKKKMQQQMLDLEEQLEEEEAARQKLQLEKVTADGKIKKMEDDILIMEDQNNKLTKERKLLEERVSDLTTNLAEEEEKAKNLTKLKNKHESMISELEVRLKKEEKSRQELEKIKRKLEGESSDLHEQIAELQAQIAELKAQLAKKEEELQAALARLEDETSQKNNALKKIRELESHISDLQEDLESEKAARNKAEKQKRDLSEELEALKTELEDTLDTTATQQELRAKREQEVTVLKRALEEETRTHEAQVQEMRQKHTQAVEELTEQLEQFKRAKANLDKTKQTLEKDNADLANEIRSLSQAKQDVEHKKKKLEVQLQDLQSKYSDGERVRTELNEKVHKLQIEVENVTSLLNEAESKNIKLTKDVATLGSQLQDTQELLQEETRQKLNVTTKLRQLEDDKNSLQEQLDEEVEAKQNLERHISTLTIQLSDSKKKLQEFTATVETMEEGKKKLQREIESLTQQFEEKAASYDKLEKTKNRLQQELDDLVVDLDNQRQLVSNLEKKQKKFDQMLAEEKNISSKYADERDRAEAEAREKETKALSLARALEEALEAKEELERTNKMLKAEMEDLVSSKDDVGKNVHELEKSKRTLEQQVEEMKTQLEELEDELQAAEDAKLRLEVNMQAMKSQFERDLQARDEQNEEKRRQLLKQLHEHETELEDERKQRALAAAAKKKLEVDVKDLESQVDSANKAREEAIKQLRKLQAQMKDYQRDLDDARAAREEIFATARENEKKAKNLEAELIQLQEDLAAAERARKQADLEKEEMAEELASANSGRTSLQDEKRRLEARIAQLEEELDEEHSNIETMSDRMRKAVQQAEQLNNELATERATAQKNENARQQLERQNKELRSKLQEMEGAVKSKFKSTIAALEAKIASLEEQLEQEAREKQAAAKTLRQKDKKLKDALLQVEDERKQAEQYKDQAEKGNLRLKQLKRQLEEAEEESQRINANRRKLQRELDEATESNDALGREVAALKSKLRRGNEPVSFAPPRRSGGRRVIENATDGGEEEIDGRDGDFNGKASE
T1 sequence (P02612 whole entry partner): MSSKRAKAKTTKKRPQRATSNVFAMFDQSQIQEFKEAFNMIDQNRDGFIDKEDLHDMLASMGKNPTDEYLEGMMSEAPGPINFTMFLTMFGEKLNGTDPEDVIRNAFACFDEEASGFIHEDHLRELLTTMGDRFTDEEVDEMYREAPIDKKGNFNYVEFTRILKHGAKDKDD
T1 sequence (P02607 whole entry partner): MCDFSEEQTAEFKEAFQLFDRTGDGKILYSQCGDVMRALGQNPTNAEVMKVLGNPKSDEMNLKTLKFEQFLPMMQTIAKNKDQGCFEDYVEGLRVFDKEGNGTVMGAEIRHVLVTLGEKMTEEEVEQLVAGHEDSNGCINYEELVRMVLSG

B1: M110-(M1-S477): rat aorta M110 fragment, residues 1-477, GST tag removed (protein, UniProt Q10728 1-477, looked up, fragment)
chain: MKMADAKQKRNEQLKRWIGSETDLEPPVVKRQKTKVKFDDGAVFLAACSSGDTDEVLKLLHRGADINYANVDGLTALHQACIDDNVDMVKFLVENGANINQPDNEGWIPLHAAASCGYLDIAEFLIGQGAHVGAVNSEGDTPLDIAEEEAMEELLQNEVNRQGVDIEAARKEEERIMLRDARQWLNSGHISDVRHAKSGGTALHVAAAKGYTEVLKLLIQAGYDVNIKDYDGWTPLHAAAHWGKEEACRILVDNLCDMETVNKVGQTAFDVADEDILGYLEELQKKQNLLHSEKRDKKSPLIESTANMENNQPQKTFKNKETLIIEPEKNASRIESLEQEKADEEEEGKKDESSCSSEEDEEDDSESEAETDKTKPMASVTNAHTASTQAAPAAVTTPTLSSNQGTPTSPVKKFPTSTTKISPKEEERKDESPASWRLGLRKTGSYGALAEITASKEAQKEKDTAGVIRSASSPRLS
On to B1, for which, in the series on M21 subunit, the “recognised by digoxigenin-labelled M21 subunit in Far Western blotting” value (“recognised … in Far Western blotting” for short) is given as “not”. Also, the binding to myosin result with myosin is on record as “did not bind to myosin”.

B2: M110-(R714-I1004): C-terminal 291 residues of the chicken gizzard M110 subunit (protein)
chain: RSTRTREQENEEKEKEEKEKQDKEKQEEKKESETKDDDYRQRYSRTVEEPYHRYRPTSTSTSTSSTSSLSTSTSSLSSSSQLNRPNSLIGITSAYSRSGTKESEREGGKKEEEKEEDKSQPKSIRERRRPREKRRSTGVSFWTQDSDENEQEHQSDSEEGTNKKETQSDSLSRYDTGSLSVSSGDRYDSAQGRSGSQSYLEDRKPYCSRLEKEDSTDFKKLYEQILAENEKLKAQLHDTNMELTDLKLQLEKTTQRQERFADRSLLEMEKRVSGKSQYLLGGKKSSRKKDI
Take B2: the “recognised … in Far Western blotting” value in the series on M21 subunit is reported as “recognised”. Besides, the binding to myosin result with myosin is listed as “bound to myosin”.

B3: M110-(M1-A150): rat aorta M110 fragment, residues 1-150 (protein, UniProt Q10728 1-150, looked up, fragment)
chain: MKMADAKQKRNEQLKRWIGSETDLEPPVVKRQKTKVKFDDGAVFLAACSSGDTDEVLKLLHRGADINYANVDGLTALHQACIDDNVDMVKFLVENGANINQPDNEGWIPLHAAASCGYLDIAEFLIGQGAHVGAVNSEGDTPLDIAEEEA
As to B3, in the series with PP1c [1], the “effect on the phosphorylase phosphatase activity of PP1c” value is listed as “modified the specificity of PP1 similarly”. Besides, in the series with PP1c [2], the “concentration needed to modulate the specificity of PP1c compared to thrombin-cleaved M110-(M1-E309)” value is 10 fold higher and the “effect on the MLC20 phosphatase activity of PP1c” value is “modified the specificity of PP1 similarly”.

B4: M110-(K933-I1004): C-terminal 72 residues of the chicken gizzard M110 subunit (protein, UniProt Q90623 933-1004, looked up, fragment)
chain: KLYEQILAENEKLKAQLHDTNMELTDLKLQLEKTTQRQERFADRSLLEMEKRVSGKSQYLLGGKKSSRKKDI
Consider B4, for which the “recognised … in Far Western blotting” value with M21 subunit was “recognised”. Also, the binding to myosin entry with myosin was “did not bind to myosin”.
